# Measured values as given in patent publication US20260035426.
# B1: recombinant human MMP2 (protein)
# chain: YNFFPRKPKWDKNQITYRIIGYTPDLDPETVDDAFARAFQVWSDVTPLRFSRIHDGEADIMINFGRWEHGDGYPFDGKDGLLAHAFAPGTGVGGDSHFDDDELWTLGEGQVVRVKYGNADGEYCKFPFLFNGKEYNSCTDTGRSDGFLWCSTTYNFEKDGKYGFCPHEALFTMGGNAEGQPCKFPFRFQGTSYDSCTTEGRTDGYRWCGTTEDYDRDKKYGFCPETAMSTVGGNSEGAPCVFPFTFLGNKYESCTSAGRSDGKMWCATTANYDDDRKWGFCPDQGYSLFLVAAHEFGHAMGLEHSQDPGALMAPIYTYTKNFRLSQDDIKGIQELYGASPDIDLGTGPTPTLGPVTPEICKQDIVFDGIAQIRGEIFFFKDRFIWRTVTPRDKPMGPLLVATFWPELPEKIDAVYEAPQEEKAVFFAGNEYWIYSASTLERGYPKPLTSLGLPPDVQRVDAAFNWSKNKKTYIFAGDKFWRYNEVKKKMDPGFPKLIADAWNAIPDNLDAVVDLQGGGHSYFFKGAYYLKLENQSLKSVKFGSIKSDWLGC
# Biological target: SB1902-C2
# Sequence (chain, as listed by the source, chain 1 of 2): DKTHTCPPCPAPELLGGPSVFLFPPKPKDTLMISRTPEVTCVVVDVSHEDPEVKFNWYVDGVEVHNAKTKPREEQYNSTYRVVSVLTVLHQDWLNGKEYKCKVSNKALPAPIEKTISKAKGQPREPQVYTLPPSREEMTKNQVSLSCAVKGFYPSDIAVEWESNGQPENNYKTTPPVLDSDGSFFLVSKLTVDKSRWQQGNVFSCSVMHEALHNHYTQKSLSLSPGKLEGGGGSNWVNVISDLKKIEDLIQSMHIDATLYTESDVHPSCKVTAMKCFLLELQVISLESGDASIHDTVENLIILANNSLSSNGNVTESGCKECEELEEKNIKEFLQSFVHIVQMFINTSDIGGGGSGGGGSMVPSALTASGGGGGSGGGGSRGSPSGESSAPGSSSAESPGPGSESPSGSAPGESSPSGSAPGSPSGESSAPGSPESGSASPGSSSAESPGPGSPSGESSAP
# Sequence (chain, as listed by the source, chain 2 of 2): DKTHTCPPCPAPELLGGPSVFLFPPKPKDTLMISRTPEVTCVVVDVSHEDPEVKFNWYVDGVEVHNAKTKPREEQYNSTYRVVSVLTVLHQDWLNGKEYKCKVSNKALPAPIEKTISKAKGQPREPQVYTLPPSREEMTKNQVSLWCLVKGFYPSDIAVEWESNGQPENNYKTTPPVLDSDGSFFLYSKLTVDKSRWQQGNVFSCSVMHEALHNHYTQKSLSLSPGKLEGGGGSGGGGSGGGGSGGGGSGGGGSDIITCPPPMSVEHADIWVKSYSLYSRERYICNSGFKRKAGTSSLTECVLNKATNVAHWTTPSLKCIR
protein,measurement,value
B1,digestion efficiency by SDS-PAGE,about 90% of the prodrug SB1902-C2 was digested
